T1: ADAMTS4 (human, UniProt O75173 213-685, limits assumed)
T1 sequence (looked up): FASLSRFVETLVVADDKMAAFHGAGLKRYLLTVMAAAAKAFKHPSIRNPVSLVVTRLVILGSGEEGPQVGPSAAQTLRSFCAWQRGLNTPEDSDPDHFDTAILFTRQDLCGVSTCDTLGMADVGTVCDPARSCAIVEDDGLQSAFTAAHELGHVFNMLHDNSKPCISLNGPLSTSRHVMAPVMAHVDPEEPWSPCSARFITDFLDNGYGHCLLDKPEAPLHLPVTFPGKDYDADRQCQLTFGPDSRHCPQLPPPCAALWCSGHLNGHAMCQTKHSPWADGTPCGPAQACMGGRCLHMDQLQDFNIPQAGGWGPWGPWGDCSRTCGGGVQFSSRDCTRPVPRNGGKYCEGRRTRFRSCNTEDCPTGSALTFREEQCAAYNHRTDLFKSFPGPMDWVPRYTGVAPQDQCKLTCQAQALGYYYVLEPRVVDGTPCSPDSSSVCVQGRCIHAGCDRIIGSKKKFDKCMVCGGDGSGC

T2: ADAMTS5 (human, UniProt Q9UNA0 262-622, limits assumed)
T2 sequence (looked up): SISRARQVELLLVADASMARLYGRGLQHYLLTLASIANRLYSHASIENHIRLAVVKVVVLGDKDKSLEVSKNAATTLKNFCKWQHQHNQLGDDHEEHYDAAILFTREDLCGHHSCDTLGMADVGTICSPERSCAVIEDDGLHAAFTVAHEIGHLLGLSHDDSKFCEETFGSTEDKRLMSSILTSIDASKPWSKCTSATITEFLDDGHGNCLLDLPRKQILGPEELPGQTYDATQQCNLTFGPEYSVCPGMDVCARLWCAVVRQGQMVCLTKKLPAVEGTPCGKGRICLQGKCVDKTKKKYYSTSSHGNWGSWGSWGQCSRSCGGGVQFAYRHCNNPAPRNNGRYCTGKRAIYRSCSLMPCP

B1: Variant A2M, bait region SEQ ID NO 117 (other)
chain: SVSGKPQYMVLVPSLLHTETTEKGCVLLSYLNETVTVSASLESVRGNRSLFTDLEAENDVLHCVAFAVPKSSSNEEVMFLTVQVKGPTQEFKKRTTVMVKNEDSLVFVQTDKSIYKPGQTVKFRVVSMDENFHPLNELIPLVYIQDPKGNRIAQWQSFQLEGGLKQFSFPLSSEPFQGSYKVVVQKKSGGRTEHPFTVEEFVLPKFEVQVTVPKIITILEEEMNVSVCGLYTYGKPVPGHVTVSICRKYSDASDCHGEDSQAFCEKFSGQLNSHGCFYQQVKTKVFQLKRKEYEMKLHTEAQIQEEGTVVELTGRQSSEITRTITKLSFVKVDSHFRQGIPFFGQVRLVDGKGVPIPNKVIFIRGNEANYYSNATTDEHGLVQFSINTTNVMGTSLTVRVNYKDRSPCYGYQWVSEEHEEAHHTAYLVFSPSKSFVHLEPMSHELPCGHTQTVQAHYILNGGTLLGLKKLSFYYLIMAKGGIVRTGTHGLLVKQEDMKGHFSISIPVKSDIAPVARLLIYAVLPTGDVIGDSAKYDVENCLANKVDLSFSPSQSLPASHAHLRVTAAPQSVCALRAVDQSVLLMKPDAELSASSVYNLLPEKDLTGFPGPLNDQDDEDCINRHNVYINGITYTPVSSTNEKDMYSFLEDMGLKAFTNSKIRKPKMCPQLEENFFGVTEGEARGSPTSEDLVVQKEEEGLGSEAIPMSIPKLRKYFPETWIWDLVVVNSAGVAEVGVTVPDTITEWKAGAFCLSEDAGLGISSTASLRAFQPFFVELTMPYSVIRGEAFTLKATVLNYLPKCIRVSVQLEASPAFLAVPVEKEQAPHCICANGRQTVSWAVTPKSLGNVNFTVSAEALESQELCGTEVPSVPEHGRKDTVIKPLLVEPEGLEKETTFNSLLCPSGGEVSEELSLKLPPNVVEESARASVSVLGDILGSAMQNTQNLLQMPYGCGEQNMVLFAPNIYVLDYLNETQQLTPEIKSKAIGYLNTGYQRQLNYKHYDGSYSTFGERYGRNQGNTWLTAFVLKTFAQARAYIFIDEAHITQALIWLSQRQKDNGCFRSSGSLLNNAIKGGVEDEVTLSAYITIALLEIPLTVTHPVVRNALFCLESAWKTAQEGDHGSHVYTKALLAYAFALAGNQDKRKEVLKSLNEEAVKKDNSVHWERPQKPKAPVGHFYEPQAPSAEVEMTSYVLLAYLTAQPAPTSEDLTSATNIVKWITKQQNAQGGFSSTQDTVVALHALSKYGAATFTRTGKAAQVTIQSSGTFSSKFQVDNNNRLLLQQVSLPELPGEYSMKVTGEGCVYLQTSLKYNILPEKEEFPFALGVQTLPQTCDEPKAHTSFQISLSVSYTGSRSASNMAIVDVKMVSGFIPLKPTVKMLERSNHVSRTEVSSNHVLIYLDKVSNQTLSLFFTVLQDVPVRDLKPAIVKVYDYYETDEFAIAEYNAPCSKDLGNADYKDDDDKGASHHHHHH
B2: Variant A2M, bait region SEQ ID NO 119 (other)
chain: SVSGKPQYMVLVPSLLHTETTEKGCVLLSYLNETVTVSASLESVRGNRSLFTDLEAENDVLHCVAFAVPKSSSNEEVMFLTVQVKGPTQEFKKRTTVMVKNEDSLVFVQTDKSIYKPGQTVKFRVVSMDENFHPLNELIPLVYIQDPKGNRIAQWQSFQLEGGLKQFSFPLSSEPFQGSYKVVVQKKSGGRTEHPFTVEEFVLPKFEVQVTVPKIITILEEEMNVSVCGLYTYGKPVPGHVTVSICRKYSDASDCHGEDSQAFCEKFSGQLNSHGCFYQQVKTKVFQLKRKEYEMKLHTEAQIQEEGTVVELTGRQSSEITRTITKLSFVKVDSHFRQGIPFFGQVRLVDGKGVPIPNKVIFIRGNEANYYSNATTDEHGLVQFSINTTNVMGTSLTVRVNYKDRSPCYGYQWVSEEHEEAHHTAYLVFSPSKSFVHLEPMSHELPCGHTQTVQAHYILNGGTLLGLKKLSFYYLIMAKGGIVRTGTHGLLVKQEDMKGHFSISIPVKSDIAPVARLLIYAVLPTGDVIGDSAKYDVENCLANKVDLSFSPSQSLPASHAHLRVTAAPQSVCALRAVDQSVLLMKPDAELSASSVYNLLPEKDLTGFPGPLNDQDDEDCINRHNVYINGITYTPVSSTNEKDMYSFLEDMGLKAFTNSKIRKPKMCPQLELQQYEMHGPEGLRVGEAIPMSIPIPENFFGVKEEEGLGSKLRKYFPETWIWDLVVVNSAGVAEVGVTVPDTITEWKAGAFCLSEDAGLGISSTASLRAFQPFFVELTMPYSVIRGEAFTLKATVLNYLPKCIRVSVQLEASPAFLAVPVEKEQAPHCICANGRQTVSWAVTPKSLGNVNFTVSAEALESQELCGTEVPSVPEHGRKDTVIKPLLVEPEGLEKETTFNSLLCPSGGEVSEELSLKLPPNVVEESARASVSVLGDILGSAMQNTQNLLQMPYGCGEQNMVLFAPNIYVLDYLNETQQLTPEIKSKAIGYLNTGYQRQLNYKHYDGSYSTFGERYGRNQGNTWLTAFVLKTFAQARAYIFIDEAHITQALIWLSQRQKDNGCFRSSGSLLNNAIKGGVEDEVTLSAYITIALLEIPLTVTHPVVRNALFCLESAWKTAQEGDHGSHVYTKALLAYAFALAGNQDKRKEVLKSLNEEAVKKDNSVHWERPQKPKAPVGHFYEPQAPSAEVEMTSYVLLAYLTAQPAPTSEDLTSATNIVKWITKQQNAQGGFSSTQDTVVALHALSKYGAATFTRTGKAAQVTIQSSGTFSSKFQVDNNNRLLLQQVSLPELPGEYSMKVTGEGCVYLQTSLKYNILPEKEEFPFALGVQTLPQTCDEPKAHTSFQISLSVSYTGSRSASNMAIVDVKMVSGFIPLKPTVKMLERSNHVSRTEVSSNHVLIYLDKVSNQTLSLFFTVLQDVPVRDLKPAIVKVYDYYETDEFAIAEYNAPCSKDLGNADYKDDDDKGASHHHHHH
B3: Variant A2M, bait region SEQ ID NO 120 (other)
chain: SVSGKPQYMVLVPSLLHTETTEKGCVLLSYLNETVTVSASLESVRGNRSLFTDLEAENDVLHCVAFAVPKSSSNEEVMFLTVQVKGPTQEFKKRTTVMVKNEDSLVFVQTDKSIYKPGQTVKFRVVSMDENFHPLNELIPLVYIQDPKGNRIAQWQSFQLEGGLKQFSFPLSSEPFQGSYKVVVQKKSGGRTEHPFTVEEFVLPKFEVQVTVPKIITILEEEMNVSVCGLYTYGKPVPGHVTVSICRKYSDASDCHGEDSQAFCEKFSGQLNSHGCFYQQVKTKVFQLKRKEYEMKLHTEAQIQEEGTVVELTGRQSSEITRTITKLSFVKVDSHFRQGIPFFGQVRLVDGKGVPIPNKVIFIRGNEANYYSNATTDEHGLVQFSINTTNVMGTSLTVRVNYKDRSPCYGYQWVSEEHEEAHHTAYLVFSPSKSFVHLEPMSHELPCGHTQTVQAHYILNGGTLLGLKKLSFYYLIMAKGGIVRTGTHGLLVKQEDMKGHFSISIPVKSDIAPVARLLIYAVLPTGDVIGDSAKYDVENCLANKVDLSFSPSQSLPASHAHLRVTAAPQSVCALRAVDQSVLLMKPDAELSASSVYNLLPEKDLTGFPGPLNDQDDEDCINRHNVYINGITYTPVSSTNEKDMYSFLEDMGLKAFTNSKIRKPKMCPQLEEEGVEEGKEEEGLGSGPAGAARGSELEGRGSPTEGEARGSKLRKYFPETWIWDLVVVNSAGVAEVGVTVPDTITEWKAGAFCLSEDAGLGISSTASLRAFQPFFVELTMPYSVIRGEAFTLKATVLNYLPKCIRVSVQLEASPAFLAVPVEKEQAPHCICANGRQTVSWAVTPKSLGNVNFTVSAEALESQELCGTEVPSVPEHGRKDTVIKPLLVEPEGLEKETTFNSLLCPSGGEVSEELSLKLPPNVVEESARASVSVLGDILGSAMQNTQNLLQMPYGCGEQNMVLFAPNIYVLDYLNETQQLTPEIKSKAIGYLNTGYQRQLNYKHYDGSYSTFGERYGRNQGNTWLTAFVLKTFAQARAYIFIDEAHITQALIWLSQRQKDNGCFRSSGSLLNNAIKGGVEDEVTLSAYITIALLEIPLTVTHPVVRNALFCLESAWKTAQEGDHGSHVYTKALLAYAFALAGNQDKRKEVLKSLNEEAVKKDNSVHWERPQKPKAPVGHFYEPQAPSAEVEMTSYVLLAYLTAQPAPTSEDLTSATNIVKWITKQQNAQGGFSSTQDTVVALHALSKYGAATFTRTGKAAQVTIQSSGTFSSKFQVDNNNRLLLQQVSLPELPGEYSMKVTGEGCVYLQTSLKYNILPEKEEFPFALGVQTLPQTCDEPKAHTSFQISLSVSYTGSRSASNMAIVDVKMVSGFIPLKPTVKMLERSNHVSRTEVSSNHVLIYLDKVSNQTLSLFFTVLQDVPVRDLKPAIVKVYDYYETDEFAIAEYNAPCSKDLGNADYKDDDDKGASHHHHHH

Target: T1, ADAMTS4
Test: cell-based or functional assay

Protease Inhibition (% of WT)	Binder
100 % of WT	B1
100 % of WT	B2
88 % of WT	B3

Target: T2, ADAMTS5
Test: cell-based or functional assay

Protease Inhibition (% of WT)	Binder
190 % of WT	B1
170 % of WT	B2
100 % of WT	B3

Target: MMP13 (human, UniProt P45452 104-471, limits assumed)
Test: cell-based or functional assay

Protease Inhibition (% of WT)	Binder
11 % of WT	B1
90 % of WT	B2
121 % of WT	B3
